Patent publication US20200157194A1 (Regeneron, published 2020)
Positions count from the first letter of the chain named.

T1: recombinant human GREM1 (hGREM1-His; C-terminal 10His tagged, R&D, #5190-GR) (human, UniProt O60565 25-184)
T1 construct: range 25-184; also called recombinant human GREM1 with a C-terminal decahistidine tag
T1 sequence: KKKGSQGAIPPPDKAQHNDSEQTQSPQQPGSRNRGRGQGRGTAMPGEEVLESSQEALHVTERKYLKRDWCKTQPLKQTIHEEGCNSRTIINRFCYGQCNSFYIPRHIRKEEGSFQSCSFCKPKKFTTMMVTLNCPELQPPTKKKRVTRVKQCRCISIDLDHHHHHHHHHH

T2: human GREM1 (hGREM1-His; SEQ ID NO: 595) (human, UniProt O60565 25-184)
T2 construct: also called biotin-hGREM1-His; recombinant human GREM1 protein
T2 sequence: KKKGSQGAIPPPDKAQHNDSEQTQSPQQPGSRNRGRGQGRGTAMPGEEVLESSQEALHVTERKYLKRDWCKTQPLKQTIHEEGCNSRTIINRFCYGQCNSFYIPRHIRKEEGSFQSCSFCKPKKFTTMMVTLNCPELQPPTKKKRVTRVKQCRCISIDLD

B1: H4H6260P (antibody, human IgG4, V domains shown)
VH: QVQLVESGGGVVQPGRSLRLSCAASGFTFSTYGMHWVRQAPGKGLEWVAIIWYDGSNYYYADSVKGRFTISRDNSKNTLYLQMNSLRAEDTAVYYCAREDRNDVFDIWGQGTMVTVSS
VL: EIVLTQSPATLSLSPGERATLSCRASQSVSSFLAWYQQKPGQAPRLLIYDSSNRATGIPARFSGSGSGTDFTLTISSLEPEDFAVYYCQQLSNWPPITFGQGTRLEIK
notes: H4H prefix = human IgG4 Fc
B2: H4H6248P (antibody, human IgG4, V domains shown)
VH: QVQLVESGGGVVQPGRSLRLSCAASGFTFSNYGMHWVRQVPGKGLEWVAVIWYDGSNKYYADSVKGRFTISRDNSKNTLYLQMNSVRAEDTAVYYCARDDYGDSPGFDYWGQGTLVTVSS
VL: EIVMTQSPATLSVSPGERATLSCRASQSVSSSLAWYQQKPGQAPRLLIYDASTRATGIPARFSGSGSGTEFTLTISGLQSEDFAVYYCQQYNNWPPWTFGQGTKVEIK
notes: H4H prefix = human IgG4 Fc
B3: H4H6251P (antibody, human IgG4, V domains shown)
VH: B2 VH with R16K, N31R, V40A, V86L, E89D, V93M, Y109F
VL: B2 VL with S32N, S65T, G77S, V85L, N92D, N93D
notes: H4H prefix = human IgG4 Fc
B4: H4H6256P (antibody, human IgG4, V domains shown)
VH: B2 VH with N31A, V40G, S85R, V86L, Y109H
VL: B2 VL with S32E, I48L, D50G, G77S, N92S
notes: H4H prefix = human IgG4 Fc
B5: H4H6250P (antibody, human IgG4, V domains shown)
VH: QVQLVESGGGVVQPGRSLRLSCAASGFTFSNYGMHWVRQAPGKGLEWVAVIWYDGSNKYYADSVKGRFTISRDNSRKTLYLQMNSLRAEDTAIYYCTRDDYGDYDYPFDYWGQGTLVTVSS
VL: DIQMTQSPSSLSASVGDRVTITCRASQGIRNDLGWYQQKPGKAPKRLIYAASSLQSGVPSRFSGTGSGTEFTLTISSLQPEDFATYYCLQHNSYPPFTFGPGTKVDIK
notes: H4H prefix = human IgG4 Fc
B6: H4H6252P (antibody, human IgG4, V domains shown)
VH: B5 VH with K43R, Y53F, R76K, K77N, A88S, I93V
VL: B5 VL with T65S, H91Y, S93T
notes: H4H prefix = human IgG4 Fc; also called H4H6252S
B7: H4H6246P (antibody, human IgG4, V domains shown)
VH: B5 VH with N31S, V50I, K58R, K77N, I93V, T97A, D100E
VL: B5 VL with Y36F, T65S, S93T
notes: H4H prefix = human IgG4 Fc
B8: H4H6245P (antibody, human IgG4, V domains shown)
VH: EVQLVESGGGLVQPGGSLRLSCAASGFTFNSFWMSWVRQAPGKGLEWVANIKQDGSEKYYVDSVKGRFTISRDNAKNSVYLQMNSLRAEDTAVYYCARDLVTSFDYWGQGTLVTVSS
VL: DIQMTQSPSSLSASVGDRVTITCQASQDINNYLNWYQQKPGKAPKLLIYDASYLETGVPSGFSGSGSGTDFTFTISSLQPEDIATYYCQQYDSLPYTFGQGTKLEIK
notes: H4H prefix = human IgG4 Fc

Tests used:
[1] = molecular target: T1, recombinant human GREM1 (hGREM1-His; …); test: BLI Octet, mAb captured, 100 nM GREM1 + 5 uM heparin;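 also: octet Red96 biolayer interferometry at 25 °C, antibodies captured on anti-human IgG Fc biosensors, pH 7.4 HEPES buffer with 0.1 mg/mL BSA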
[2] = molecular target: T1, recombinant human GREM1 (hGREM1-His; …); test: BLI Octet, mAb captured, 100 nM GREM1 without vs with 5 uM heparin;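 also: octet Red96 biolayer interferometry at 25 °C, antibodies captured on anti-human IgG Fc biosensors, association of GREM1 measured with versus without heparin in HEPES-buffered saline, pH 7.4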
[3] = molecular target: T2, human GREM1 (hGREM1-His; SEQ ID NO: 595); test: SPR, Biacore T200, 37 C, mAb captured, hGREM1-His injected;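 also: HBS-EP running buffer containing heparin, association and dissociation phases tracked, KD computed as koff over kon and half-life derived from koff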
[4] = molecular target: T2, human GREM1 (hGREM1-His; SEQ ID NO: 595); test: competition ELISA, biotin-hGREM1-His (100 pM) binding to coated hBMP4
Method: Data were analyzed using a sigmoidal dose-response model within Prism™ software. […] The absorbance values of the wells containing the highest concentration for each antibody were used to determine the percent maximum blocking.

[5] = molecular target: T2, human GREM1 (hGREM1-His; SEQ ID NO: 595); test: SPR, Biacore T200, 25 C, mAb captured, hGREM1-His injected;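 also: Heparin-supplemented HBS-EP+ used as running buffer, association and dissociation phases followed, Kd computed as koff divided by kon and half-life derived from koff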
[6] = molecular target: T1, recombinant human GREM1 (hGREM1-His; …); test: cell-based or functional assay
[7] = molecular target: T1, recombinant human GREM1 (hGREM1-His; …); test: cell-based or functional assay; remark: listed apart in the source
[8] = molecular target: T1, recombinant human GREM1 (hGREM1-His; …); test: BLI Octet, mAb captured, 100 nM GREM1;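 also: octet Red96 biolayer interferometry at 25 °C in pH 7.4 HEPES saline buffer, antibodies held on anti-human IgG Fc capture biosensors, then exposed to GREM1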
Method: Binding measurements were conducted using an Octet Red96 label-free biomolecular interaction instrument (ForteBio). All experiments were performed at 25° C. using plate agitation at 1000 rpm. Solutions were made in an aqueous buffer containing 10 mM HEPES, 150 mM NaCl, 3 mM EDTA 0.05% P20, 0.1 mg/mL BSA and adjusted to pH of 7.4 (HBST buffer).
Anti-Human IgG Fc Capture biosensors (ForteBio) were separately loaded with 50 μg/mL solutions of 24 different anti-GREM1 antibodies for 60 seconds. Following a 30 second wash, duplicate biosensors for each antibody were submerged into wells containing either 100 nM GREM1 solutions or 100 nM GREM1 solutions containing 5 μM of heparin, measuring association for 300 seconds.

Row | Binding Signal with 30 sec Association [1] [nm] | Binding Signal with 300 sec Association [1] [nm] | Reduction in Signal from Heparin at 30 sec [2] [nm] | Reduction in Signal from Heparin at 300 sec [2] [nm] | Kd [3] [nM] | koff [3] [s⁻¹] | kon [3] [M⁻¹ s⁻¹] | t1/2 [3] [min] | % blocked at maximum Ab tested (20 nM) [4] [%] | IC50 [4] [nM] | Kd [5] [nM] | koff [5] [s⁻¹] | kon [5] [M⁻¹ s⁻¹] | t1/2 [5] [min] | IC50 [M], inhibition of hGREM1-His, W-20-17/BRE-luc luciferase (100 pM hBMP4, 10 nM hGREM1-His) [6] [M] | hGREM1-His Inhibition IC50, M; W-20-17 cell differentiation assay (alkaline phosphatase) [7] [nM] | Binding Signal with 30 sec Association [8] [nm] | Binding Signal with 300 sec Association [8] [nm] | Binder
1 | 0.07 | 0.37 | 0.17 | 0.05 | 1.71 | 0.000285 | 166000 | 41 | 87 | < 0.025 | 0.669 | 6.51e-05 | 97400 | 177 | 4.6e-10 | 3.3 | 0.24 | 0.42 | B1
2 | 0.04 | 0.37 | 0.17 | 0.05 | 5.69 | 0.000487 | 85500 | 24 | 62 | 0.21 | 1.54 | 7.73e-05 | 50300 | 149 | 5.3e-10 | 5.6 | 0.21 | 0.42 | B2
3 | 0.03 | 0.36 | 0.24 | 0.09 | 275 | 0.00694 | 25300 | 2 | 62 | 0.11 | 23.1 | 0.000652 | 28200 | 18 | 6.3e-10 | 11 | 0.27 | 0.45 | B3
4 | 0.07 | 0.38 | 0.13 | 0.02 | 4.08 | 0.000466 | 114000 | 25 | 75 | 0.087 | 1.19 | 0.000107 | 90000 | 108 | 5.4e-10 | 5.7 | 0.2 | 0.4 | B4
5 | 0.06 | 0.32 | 0.14 | 0.05 | 5.93 | 0.000882 | 149000 | 13 | 42 | 0.11 | 3.3 | 0.000297 | 90100 | 39 | 4.4e-10 | 12 | 0.2 | 0.37 | B5
6 | 0.04 | 0.35 | 0.19 | 0.09 | 4.14 | 0.000459 | 111000 | 25 | 53 | 0.19 | 1.02 | 7.58e-05 | 74600 | 152 | 8.2e-10 | 6.1 | 0.23 | 0.44 | B6
7 | 0.06 | 0.34 | 0.13 | 0.04 | 3.5 | 0.000444 | 127000 | 26 | 62 | 1.5 | 2.59 | 0.000192 | 73900 | 60 | 5.6e-10 | 6.2 | 0.19 | 0.38 | B7
8 | 0.02 | 0.22 | 0.21 | 0.19 | 2.53 | 0.000262 | 103000 | 44 | 96 | 0.036 | 1.51 | 0.000117 | 77900 | 98 | 5.3e-10 | 6.1 | 0.23 | 0.41 | B8
